Experimental data as given in US20210230570.

B1: FIXa-Y155F/K247N/N249S/R338E/R403E/E410N (protein)
chain 1: YNSGKLEEFVQGNLERECMEEKCSFEEAREVFENTERTTEFWKQYVDGDQCESNPCLNGGSCKDDINSYECWCPFGFEGKNCELDVTCNIKNGRCEQFCKNSADNKVVCSCTEGYRLAENQKSCEPAVPFPCGRVSVSQTSKLTR
chain 2: VVGGEDAKPGQFPWQVVLNGKVDAFCGGSIVNEKWIVTAAHCVETGVKITVVAGEHNIEETEHTEQNRSVIRIIPHHNYNAAINKYNHDIALLELDEPLVLNSYVTPICIADKEYTNIFLKFGSGYVSGWGRVFHKGRSALVLQYLRVPLVDRATCLESTKFTIYNNMFCAGFHEGGRDSCQGDSGGPHVTEVEGTSFLTGIISWGEECAMKGKYGIYTKVSEYVNWIKNKTKLT
B2: FIXa-R318Y/R338E/T343R/R403E (protein)
chain 1: YNSGKLEEFVQGNLERECMEEKCSFEEAREVFENTERTTEFWKQYVDGDQCESNPCLNGGSCKDDINSYECWCPFGFEGKNCELDVTCNIKNGRCEQFCKNSADNKVVCSCTEGYRLAENQKSCEPAVPFPCGRVSVSQTSKLTR
chain 2: VVGGEDAKPGQFPWQVVLNGKVDAFCGGSIVNEKWIVTAAHCVETGVKITVVAGEHNIEETEHTEQKRNVIRIIPHHNYNAAINKYNHDIALLELDEPLVLNSYVTPICIADKEYTNIFLKFGSGYVSGWGRVFHKGYSALVLQYLRVPLVDRATCLESTKFRIYNNMFCAGFHEGGRDSCQGDSGGPHVTEVEGTSFLTGIISWGEECAMKGKYGIYTKVSEYVNWIKEKTKLT
B3: FIXa-R338E/T343R/R403E/E410N (protein)
chain 1: YNSGKLEEFVQGNLERECMEEKCSFEEAREVFENTERTTEFWKQYVDGDQCESNPCLNGGSCKDDINSYECWCPFGFEGKNCELDVTCNIKNGRCEQFCKNSADNKVVCSCTEGYRLAENQKSCEPAVPFPCGRVSVSQTSKLTR
chain 2: VVGGEDAKPGQFPWQVVLNGKVDAFCGGSIVNEKWIVTAAHCVETGVKITVVAGEHNIEETEHTEQKRNVIRIIPHHNYNAAINKYNHDIALLELDEPLVLNSYVTPICIADKEYTNIFLKFGSGYVSGWGRVFHKGRSALVLQYLRVPLVDRATCLESTKFRIYNNMFCAGFHEGGRDSCQGDSGGPHVTEVEGTSFLTGIISWGEECAMKGKYGIYTKVSEYVNWIKNKTKLT
B4: FIXa-Y155F/R318Y/R338E/T343R/R403E (protein)
chain 1: YNSGKLEEFVQGNLERECMEEKCSFEEAREVFENTERTTEFWKQYVDGDQCESNPCLNGGSCKDDINSYECWCPFGFEGKNCELDVTCNIKNGRCEQFCKNSADNKVVCSCTEGYRLAENQKSCEPAVPFPCGRVSVSQTSKLTR
chain 2: VVGGEDAKPGQFPWQVVLNGKVDAFCGGSIVNEKWIVTAAHCVETGVKITVVAGEHNIEETEHTEQKRNVIRIIPHHNYNAAINKYNHDIALLELDEPLVLNSYVTPICIADKEYTNIFLKFGSGYVSGWGRVFHKGYSALVLQYLRVPLVDRATCLESTKFRIYNNMFCAGFHEGGRDSCQGDSGGPHVTEVEGTSFLTGIISWGEECAMKGKYGIYTKVSEYVNWIKEKTKLT
B5: FIXa-Y155F/R318Y/R338E/T343R/E410N (protein)
chain 1: YNSGKLEEFVQGNLERECMEEKCSFEEAREVFENTERTTEFWKQYVDGDQCESNPCLNGGSCKDDINSYECWCPFGFEGKNCELDVTCNIKNGRCEQFCKNSADNKVVCSCTEGYRLAENQKSCEPAVPFPCGRVSVSQTSKLTR
chain 2: VVGGEDAKPGQFPWQVVLNGKVDAFCGGSIVNEKWIVTAAHCVETGVKITVVAGEHNIEETEHTEQKRNVIRIIPHHNYNAAINKYNHDIALLELDEPLVLNSYVTPICIADKEYTNIFLKFGSGYVSGWGRVFHKGYSALVLQYLRVPLVDRATCLESTKFRIYNNMFCAGFHEGGRDSCQGDSGGPHVTEVEGTSFLTGIISWGEECAMKGKYGIYTKVSRYVNWIKNKTKLT
B6: FIXa-Y155F/R338E/T343R/R403E/E410N (protein)
chain 1: YNSGKLEEFVQGNLERECMEEKCSFEEAREVFENTERTTEFWKQYVDGDQCESNPCLNGGSCKDDINSYECWCPFGFEGKNCELDVTCNIKNGRCEQFCKNSADNKVVCSCTEGYRLAENQKSCEPAVPFPCGRVSVSQTSKLTR
chain 2: VVGGEDAKPGQFPWQVVLNGKVDAFCGGSIVNEKWIVTAAHCVETGVKITVVAGEHNIEETEHTEQKRNVIRIIPHHNYNAAINKYNHDIALLELDEPLVLNSYVTPICIADKEYTNIFLKFGSGYVSGWGRVFHKGRSALVLQYLRVPLVDRATCLESTKFRIYNNMFCAGFHEGGRDSCQGDSGGPHVTEVEGTSFLTGIISWGEECAMKGKYGIYTKVSEYVNWIKNKTKLT
B7: FIXa-K228N/I251S/R318Y/R338E/R403E/E410N (protein)
chain 1: YNSGKLEEFVQGNLERECMEEKCSFEEAREVFENTERTTEFWKQYVDGDQCESNPCLNGGSCKDDINSYECWCPFGFEGKNCELDVTCNIKNGRCEQFCKNSADNKVVCSCTEGYRLAENQKSCEPAVPFPCGRVSVSQTSKLTR
chain 2: VVGGEDAKPGQFPWQVVLNGKVDAFCGGSIVNEKWIVTAAHCVETGVNITVVAGEHNIEETEHTEQKRNVSRIIPHHNYNAAINKYNHDIALLELDEPLVLNSYVTPICIADKEYTNIFLKFGSGYVSGWGRVFHKGYSALVLQYLRVPLVDRATCLESTKFTIYNNMFCAGFHEGGRDSCQGDSGGPHVTEVEGTSFLTGIISWGEECAMKGKYGIYTKVSEYVNWIKNKTKLT
B8: FIXa-Y155F/K247N/N249S/R318Y/R338E/T343R/R403E/E410N (protein)
chain 1: YNSGKLEEFVQGNLERECMEEKCSFEEAREVFENTERTTEFWKQYVDGDQCESNPCLNGGSCKDDINSYECWCPFGFEGKNCELDVTCNIKNGRCEQFCKNSADNKVVCSCTEGYRLAENQKSCEPAVPFPCGRVSVSQTSKLTR
chain 2: VVGGEDAKPGQFPWQVVLNGKVDAFCGGSIVNEKWIVTAAHCVETGVKITVVAGEHNIEETEHTEQNRSVIRIIPHHNYNAAINKYNHDIALLELDEPLVLNSYVTPICIADKEYTNIFLKFGSGYVSGWGRVFHKGYSALVLQYLRVPLVDRATCLESTKFRIYNNMFCAGFHEGGRDSCQGDSGGPHVTEVEGTSFLTGIISWGEECAMKGKYGIYTKVSEYVNWIKNKTKLT
B9: FIXa-K247N/N249S/R338E/R403E/E410N (protein)
chain 1: YNSGKLEEFVQGNLERECMEEKCSFEEAREVFENTERTTEFWKQYVDGDQCESNPCLNGGSCKDDINSYECWCPFGFEGKNCELDVTCNIKNGRCEQFCKNSADNKVVCSCTEGYRLAENQKSCEPAVPFPCGRVSVSQTSKLTR
chain 2: VVGGEDAKPGQFPWQVVLNGKVDAFCGGSIVNEKWIVTAAHCVETGVKITVVAGEHNIEETEHTEQNRSVIRIIPHHNYNAAINKYNHDIALLELDEPLVLNSYVTPICIADKEYTNIFLKFGSGYVSGWGRVFHKGRSALVLQYLRVPLVDRATCLESTKFTIYNNMFCAGFHEGGRDSCQGDSGGPHVTEVEGTSFLTGIISWGEECAMKGKYGIYTKVSEYVNWIKNKTKLT
B10: FIXa-Y155F/R318Y/T343R/R403E/E410N (protein)
chain 1: YNSGKLEEFVQGNLERECMEEKCSFEEAREVFENTERTTEFWKQYVDGDQCESNPCLNGGSCKDDINSYECWCPFGFEGKNCELDVTCNIKNGRCEQFCKNSADNKVVCSCTEGYRLAENQKSCEPAVPFPCGRVSVSQTSKLTR
chain 2: VVGGEDAKPGQFPWQVVLNGKVDAFCGGSIVNEKWIVTAAHCVETGVKITVVAGEHNIEETEHTEQKRNVIRIIPHHNYNAAINKYNHDIALLELDEPLVLNSYVTPICIADKEYTNIFLKFGSGYVSGWGRVFHKGYSALVLQYLRVPLVDRATCLRSTKFRIYNNMFCAGFHEGGRDSCQGDSGGPHVTEVEGTSFLTGIISWGEECAMKGKYGIYTKVSEYVNWIKNKTKLT

target: Factor X (FX), P00742
Sequence (P00742 whole entry, looked up): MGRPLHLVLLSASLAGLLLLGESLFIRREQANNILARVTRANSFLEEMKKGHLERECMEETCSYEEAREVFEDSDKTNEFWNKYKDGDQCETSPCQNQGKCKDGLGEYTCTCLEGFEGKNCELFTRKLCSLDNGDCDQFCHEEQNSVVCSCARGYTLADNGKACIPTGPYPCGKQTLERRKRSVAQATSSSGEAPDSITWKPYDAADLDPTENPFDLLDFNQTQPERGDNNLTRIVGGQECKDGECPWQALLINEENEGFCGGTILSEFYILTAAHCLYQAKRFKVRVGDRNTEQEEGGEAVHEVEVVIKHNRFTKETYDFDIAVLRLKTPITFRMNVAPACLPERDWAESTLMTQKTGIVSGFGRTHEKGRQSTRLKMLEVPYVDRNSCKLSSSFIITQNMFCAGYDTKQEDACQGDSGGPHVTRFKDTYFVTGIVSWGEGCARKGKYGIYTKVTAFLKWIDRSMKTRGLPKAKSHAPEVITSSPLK

Which results are given for B1?
KM: 48.7 nM; kcat of FX activation by FIXa in the Xase complex (FVIIIa, PC/PS vesicles, Ca2+): 5 s⁻¹

Which KM does the source give for B2 here?
Its KM is 44.3 nM.

What about the kcat of FX activation by FIXa in the Xase complex (FVIIIa, PC/PS vesicles, Ca2+) of the same protein?
Its kcat of FX activation by FIXa in the Xase complex (FVIIIa, PC/PS vesicles, Ca2+) is 6.7 s⁻¹.

How did the KM turn out when B3 was run?
The KM was 34.7 nM.

And the kcat of FX activation by FIXa in the Xase complex (FVIIIa, PC/PS vesicles, Ca2+)?
Its kcat of FX activation by FIXa in the Xase complex (FVIIIa, PC/PS vesicles, Ca2+) is 9.8 s⁻¹.

With B4 as the protein, how does the KM read?
Its KM is 34 nM.

What about the kcat of FX activation by FIXa in the Xase complex (FVIIIa, PC/PS vesicles, Ca2+) of the same protein?
Its kcat of FX activation by FIXa in the Xase complex (FVIIIa, PC/PS vesicles, Ca2+) is 8.2 s⁻¹.

With B5 as the protein, how does the KM read?
Its KM is 25.6 nM.

And the kcat of FX activation by FIXa in the Xase complex (FVIIIa, PC/PS vesicles, Ca2+)?
The kcat of FX activation by FIXa in the Xase complex (FVIIIa, PC/PS vesicles, Ca2+) was 9.2 s⁻¹.

With B6 as the protein, how does the KM read?
Its KM is 25.9 nM.

And the kcat of FX activation by FIXa in the Xase complex (FVIIIa, PC/PS vesicles, Ca2+)?
Its kcat of FX activation by FIXa in the Xase complex (FVIIIa, PC/PS vesicles, Ca2+) is 5.7 s⁻¹.

What does the source list for B7?
KM: 36.4 nM; kcat of FX activation by FIXa in the Xase complex (FVIIIa, PC/PS vesicles, Ca2+): 7.5 s⁻¹

B8 was tested. Which KM did it give?
The KM was 25.7 nM.

And the kcat of FX activation by FIXa in the Xase complex (FVIIIa, PC/PS vesicles, Ca2+)?
The kcat of FX activation by FIXa in the Xase complex (FVIIIa, PC/PS vesicles, Ca2+) was 9.7 s⁻¹.

With B9 as the protein, how does the KM read?
Its KM is 25 nM.

What about the kcat of FX activation by FIXa in the Xase complex (FVIIIa, PC/PS vesicles, Ca2+) of the same protein?
Its kcat of FX activation by FIXa in the Xase complex (FVIIIa, PC/PS vesicles, Ca2+) is 4.8 s⁻¹.

With B10 as the protein, how does the KM read?
Its KM is 34 nM.

What about the kcat of FX activation by FIXa in the Xase complex (FVIIIa, PC/PS vesicles, Ca2+) of the same protein?
Its kcat of FX activation by FIXa in the Xase complex (FVIIIa, PC/PS vesicles, Ca2+) is 8.8 s⁻¹.
